In paper PMC7293033:
Substitutions are numbered along the chain they refer to. Names and notes keep the numbering of the source. One block for each binder: values may come before it.

Assays:
Test in all cases: SPR
[1] = molecular target: His-FGF2, LMW FGF2 (residues 135-288, C211S/C229S), P09038; conditions: chain shown with the change; concentration series 0.031, 0.063, 0.13, 0.25, 0.50, 1.0, 2.0, 4.0, 8.0, 16 µM
[2] = molecular target: T1, His-FGF2 Mut (C211S/C229S/R262A/T263A/K271A), P09038; conditions: chain shown with the change; concentration series 0.25, 0.50, 1.0, 2.0, 4.0, 8.0, 16, 32, 64 µM
T1 chain: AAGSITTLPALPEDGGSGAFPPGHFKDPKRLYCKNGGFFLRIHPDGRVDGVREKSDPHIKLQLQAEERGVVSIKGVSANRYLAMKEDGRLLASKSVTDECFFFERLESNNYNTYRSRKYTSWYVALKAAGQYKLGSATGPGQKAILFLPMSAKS

[3] = molecular target: T2, His-API5 (apoptosis inhibitor 5, residues 1-504, isoform 2), wild type; conditions: chain shown with the change; concentration series 0.13, 0.25, 0.50, 1.0, 2.0, 4.0, 8.0, 16 µM
T2 chain: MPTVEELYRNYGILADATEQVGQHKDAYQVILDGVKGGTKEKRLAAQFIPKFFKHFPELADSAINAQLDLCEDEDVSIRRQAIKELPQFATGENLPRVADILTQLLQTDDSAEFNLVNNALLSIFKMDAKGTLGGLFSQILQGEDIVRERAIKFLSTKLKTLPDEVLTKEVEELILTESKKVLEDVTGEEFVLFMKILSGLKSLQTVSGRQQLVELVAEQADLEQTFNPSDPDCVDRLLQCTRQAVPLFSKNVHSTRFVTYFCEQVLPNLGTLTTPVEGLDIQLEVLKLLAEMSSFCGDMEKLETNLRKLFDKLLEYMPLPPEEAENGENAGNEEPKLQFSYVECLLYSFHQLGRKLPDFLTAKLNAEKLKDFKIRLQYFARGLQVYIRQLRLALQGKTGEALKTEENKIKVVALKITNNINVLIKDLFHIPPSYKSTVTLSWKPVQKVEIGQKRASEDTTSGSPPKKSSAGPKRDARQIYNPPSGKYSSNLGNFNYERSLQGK

- koff [1]: 0.0094 s⁻¹
B1: His-API5 (apoptosis inhibitor 5, residues 1-504, isoform 2), wild type E184A; D185A; E190A (protein)
chain: T2 chain with E184A, D185A, E190A

- koff [2]: 0.00328 s⁻¹
- other: t1/2 (half-life of complex) [2]: 3.52 min
B2: m1; m2 API5: E184A; D185A; E190A; FGF2: R262A; T263A; K271A (protein)
chain: T2 chain with E184A, D185A, E190A

- koff [3]: 0.00251 s⁻¹
B3: His-FGF2, LMW FGF2 (residues 135-288, C211S/C229S), P09038 R262A; T263A; K271A (protein)
chain: T1 chain
